# Assay: yeast display, Sf9 membrane polyspecificity reagent, FACS + sequencing; frameworks hold sequencing errors
# How it was run: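 In a synthetic yeast display library (Saccharomyces cerevisiae BJ5465), nanobody expression was induced with galactose for 36–48 hours. FACS gates were set low and high (top ~1%) using anti-HA fluorescence for expression and streptavidin fluorescence for binding of the Sf9 membrane reagent. Each polyreactivity label is drawn from the gate of origin.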
row,Sequence,polyreactivity (PSR sort gate)
1,QVQLVESGGGLVQAGGSLRLSCAASGFTFTGYAMGWYRQAPGKERELVAVISSRGGSTYYADSVKGRFTISRDNAKNTVYLQMNSLKPEDTAVYYCAARGYKGFSSPFGYWGQGTQVTVSS,high polyreactivity
2,QVQLVESGGGLVHAGGSLRLSCAASGSTFWANAMGWYRPPPGKERELVAAITSTGITYYADSVKGRFTISRDNAKNTVYLQMNSLKPEDTAVYYCAADGFRYSVYLIRNPMDYWGQGTQVTVSS,low polyreactivity
3,QVQLVDSGGGLVQAGGSLRLSCAASGRIFYSYAMGWYRQAPGKERELVAAISRSGGRTYYADSVKARFTISRDNAKNTVYFQMNSLKPEDTAVYYCAADGRVGEEEYWGQGTQVTVSS,high polyreactivity
4,QVQLVESGGGLVQAGGSLRLSCAASGRIFVAYAMGWYRQAPGKQRELVADIDYIDGSTYYADSVKGRFTISRDNAKNTVYLQMNSLKPEDTAVYYCAVDSLYYAGYYDYWGQGTQVTVSS,high polyreactivity
5,QVHLVESGGGLVQAGGSLRLSCAASGIILYRNAMGWYRQAPGKERELVAAITNTGSRTYYADSVKGRFTISRDNAKNTVYLQMTSLKPEDTAVYYCAAYYYYSAYGDDYWGQGTQVTVSS,high polyreactivity
6,QVQLVESGGGLVQAAGSLRLSCAASGNIFVRYVMGWYRQAPGKERELVAAITTSGGSTRYADSVKGRFTISRDNAKNSVYLQMNSLKPEDTAVYYCAARFRYRHLTYGYWGQGTQVTVSS,high polyreactivity
7,QVQLVESGGALVQAGGSLRLSCAASGGILQYNAMGWYRQAPGKEREFVAAITTSGGSTYYADSVKGRFTISRDNAKNTVYLQMNSLKPEDTAVYYCAADSWWGIYYSGYDYWGQGSQVTVSS,low polyreactivity
8,QVQLVESGGGLVQAGGSLRLSCAASGRTFRTNAMGWYRQAPGKERELVAAIRASTGSTYYADSVKGRFTISRDNAKNTVYLQMNSLKPEDTAVYYCAATTQGVRYGYWGQGTQVTVSA,high polyreactivity
9,QVQLVESGGGLVQEGGSLRLSCAASGFTFRWYAMGWYRQPPRKERELFAVISSGGRTYYADSVKGRFTISRDNAKNTVYLEKNSLKPEDTAVYSCAAEFTDHYPDYWGYPLYDYWGQGTQVTVSS,high polyreactivity
10,QDQLVESGGGLVQAGGSLRLSCAASGFNFSPNAMGWYRQAPGKERELVAAIDWSGDRTYYADSVKGRFTISRDNAKNTVYLEMNSLKPEDTSVYYCNVVRRSTGEYSFYYWGQGTQVTVSS,low polyreactivity
11,QVQLVESGGGLVQAGGSLRLSCAASGRTLASNAMGWYRQAPGKEREFVAAITDSGGRTYYADSVKGRFTISRDNAKNTVYLQMNSLKPEDTAVYYCNAYQYYERYDTYLFRYDYWGQGTQVTVSS,low polyreactivity
12,QVQLVESGGGLVQAGGSLRLSCAASGFTFGRYAMGWYRQAPGKERELVAAITWSGGSTYYADSVKGRFTISRDNAKNTVYLQMNSLKPEDTAVYYCNRLSNNREYDYWGQGTQVTVSS,high polyreactivity
13,QVHLVESGGGLVQAGGSLRLSCAASGYIFGGYAMGWSRQAPGKEREFVAAISDISGSTYYADSVKGRFTISRDNAKNTVYLQMNSLKPEDTAVYYGGHTSTADEDYWGQGTQVTVSS,low polyreactivity
14,QDQLVESGGGLVQAGGSLRLSCAASGRTFSYNAMGWYRQAPRKERELVAAISYDGGRTYYADSVKGRFTISRDNAKNTFYLQMNSLKPEDTAVYYCAAYPYRGPHTWTIGDYWGQGTQVTVSS,low polyreactivity
15,QVQLEESGGGLVQAGGSLRLSCAASGITFVGNAMGWYRQAPGKERELVAGIRGNGGSTYYADSVKGRFTISRDNAKNTVYLQMHSMNPEDTAVYYCAAAAYYADFDYWGQGTQVTVSS,low polyreactivity
16,QVQLVESGAPLVQAGGSLRLSCAASGSTFERYVMGWYRQRLGNKGSWLPVLNHNGGSTYYADSVKGRFTISRDNAKNTVYLQMNSLKPEDTAVYYCAASFRTVLDYGYWGQGTQVTVSS,low polyreactivity
17,QVQLVESGGGLVQAGGSLRLSCAASRRTSRYYAMGWYRQAPGKETEFVAAINFSGGRTYYADSVKGRFTISRDNAKNSVYLQMNSLKPEDTAVYYCATQDYRYRYSRFGYWGQGTLVTVSS,high polyreactivity
18,QVQLVESGGGLVQAGGSLRLSCAASGSTFRSYTMGWYRQAPGKERELVADINGTGGSTYYADSVKGRFTISRDNAKNTVYLQMNSLKPEDTAVYYCAADGYFRTVTSGWALRMGYWGQGTQVTVSS,high polyreactivity
19,QVHLQERGGGLLQACGSQRLSCAASGSISEVQYMGWYRRAPGKEREFVAGIAPGATTYYADSVKCRFTISRDNAKNTVFLQMNSLNPEYTDVDYFEDRYVTETDHDYWGQGTQVTVCS,low polyreactivity
20,QVQLVESGGGLVQAGGSLRLSCAASGSIFLGNTMGWYRQAPGKERELVAAITIGGSTHYADSVKGRFTISRDNAKNTVYLQMNSLKPDDTAVYYCAKEGWPFGIDFDYWGQGTQVTVSS,low polyreactivity
21,QVQLVESGGGLVQAGGSLRLSCAASGSTYRYYDMGWYRQAPGKERELVAAITWSGGTTYYADSVKGRFTISRDNAKNTVYLQMNSLKPEDTAVYYCAADSVLTPYDYWGQGTQVTVSS,low polyreactivity
22,QVQLVESGVGLVQAGGSLSLSCAASGSTFPKYAMGWYRQAPGKERELVAAISGSGGSTYYADSVKGRFTISRDNAKNTVYLQMNSLKREDTAVYYCAVAWNVRGVGARQRYIYGYWGQGTQVTVSS,high polyreactivity
23,QVQLVESGGGLVHAGGSLRLSCAAYGSIFNYYAMGWYRQAPGKERVFVADISGSGSSTYYADSVKGRFTISRDNAKNTFYLQKNSLKPEDTAVYYCNAEYYWGVGYYPYSDYGYWGQGTQVTVSS,low polyreactivity
24,QVQLVESGGCLVQAGGRLRLSCAASVRTFRSYAMGWYRQAPGKERELVAAISWSGGSTYYADSVKGRFTISRDNAKNTVYLQMTSLKPEDTAGYYCAAEVYYTYVYILDYWGQGTQVTVSS,high polyreactivity
25,QVQIVESGGGLVQAGGSLRLSCSASGRIFVGNAMGWYRQAPGKERELVAAISQRGGSTYYADSVKGRFTISRDYAKNTVYFQMNSRKQDVTAVYSCNAACRRAATSIWSWYDHWGQGTQETVSS,low polyreactivity
26,QVQLVESGGGLVQAGGSLRISCAASGRIFGFNAMGWYRQAPGKERELVAAISRTSSSTYYADSVKGRFTISRDNAKNTVYLQMNSLKPEDTAVYYCATRYFTHGKYDYWGQGTQVTVSS,high polyreactivity
27,QVQLVESGGGLVQAGGSLRLSCAASGLTFDYYDMGWYRQAPGKERELVASITWRGSSTYYADSVKGRFTISRDNAKNTVYLQMYSLKPEDTAVYYCAADPQSTIRDYWGQGTQVTVSS,high polyreactivity
28,QVQLVESGGGLVQAGGSLRLSCAASGRTFRYNAMGWYRQAPGKERELVAAISSGDRTNYADSVKGRFTISRDNAKNTVYLQMNSLKPEDTAVYYCAAPTDSYYEFDYWGQGTQVTVSS,low polyreactivity
29,QVQLVESGGGLVQAGGSLRLSSAASGSTFYWYTMGWYRQAPGKERELVARISKRGGSTYYADSVKGRFTISRDNAKNTVYLQMNSLKPEDTAVYYCNATSRTVGFGYWGQGTQVTVSS,high polyreactivity
30,QVQLVESRGGLVQAGGSLRLSCAASGFTFWFYAMGWYRQAPGKERELVAAISNAGGTNYADSVKGRFTISRDNAKYTVYLQMNSLKPEDTAVYYCAAAWPHWGDLGGTEWYLFYYWGQGTQVTVSS,low polyreactivity

# — the nanobody polyreactivity screen of Harvey et al. (2022)
